The source of these data is patent publication US20030194400.

This series deals with Fn-TF:Factor VIIa complex (UniProt P08709).
Chain of Fn-TF:Factor VIIa complex (chain, as listed by the source, chain 1 of 2): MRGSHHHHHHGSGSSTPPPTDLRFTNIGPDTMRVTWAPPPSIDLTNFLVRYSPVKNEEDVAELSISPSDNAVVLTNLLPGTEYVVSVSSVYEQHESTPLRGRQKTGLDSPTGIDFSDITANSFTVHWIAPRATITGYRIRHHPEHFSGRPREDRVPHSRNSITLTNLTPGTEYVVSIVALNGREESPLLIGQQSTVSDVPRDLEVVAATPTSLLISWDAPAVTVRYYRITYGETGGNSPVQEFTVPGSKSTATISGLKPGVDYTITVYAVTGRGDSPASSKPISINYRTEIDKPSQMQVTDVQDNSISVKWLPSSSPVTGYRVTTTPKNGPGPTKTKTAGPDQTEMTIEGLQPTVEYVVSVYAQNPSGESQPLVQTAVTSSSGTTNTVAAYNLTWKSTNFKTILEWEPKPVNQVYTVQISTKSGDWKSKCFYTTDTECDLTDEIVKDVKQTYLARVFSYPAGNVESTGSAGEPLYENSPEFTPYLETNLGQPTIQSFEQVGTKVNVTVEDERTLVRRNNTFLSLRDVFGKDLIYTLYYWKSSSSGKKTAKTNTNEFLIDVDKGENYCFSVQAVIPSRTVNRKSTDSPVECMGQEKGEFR
Chain of Fn-TF:Factor VIIa complex (P08709 61-466, chain 2 of 2): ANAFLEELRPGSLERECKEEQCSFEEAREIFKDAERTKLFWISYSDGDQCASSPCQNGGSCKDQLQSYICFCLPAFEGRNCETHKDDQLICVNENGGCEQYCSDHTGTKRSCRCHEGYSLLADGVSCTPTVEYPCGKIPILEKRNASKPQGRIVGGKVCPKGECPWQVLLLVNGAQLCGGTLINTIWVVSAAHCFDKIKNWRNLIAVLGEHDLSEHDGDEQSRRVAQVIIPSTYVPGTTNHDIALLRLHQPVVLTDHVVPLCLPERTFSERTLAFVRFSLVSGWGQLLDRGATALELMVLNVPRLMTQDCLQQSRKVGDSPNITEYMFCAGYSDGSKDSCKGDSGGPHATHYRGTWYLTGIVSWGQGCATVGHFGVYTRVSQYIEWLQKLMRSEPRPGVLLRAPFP

Chain of Factor X (chain): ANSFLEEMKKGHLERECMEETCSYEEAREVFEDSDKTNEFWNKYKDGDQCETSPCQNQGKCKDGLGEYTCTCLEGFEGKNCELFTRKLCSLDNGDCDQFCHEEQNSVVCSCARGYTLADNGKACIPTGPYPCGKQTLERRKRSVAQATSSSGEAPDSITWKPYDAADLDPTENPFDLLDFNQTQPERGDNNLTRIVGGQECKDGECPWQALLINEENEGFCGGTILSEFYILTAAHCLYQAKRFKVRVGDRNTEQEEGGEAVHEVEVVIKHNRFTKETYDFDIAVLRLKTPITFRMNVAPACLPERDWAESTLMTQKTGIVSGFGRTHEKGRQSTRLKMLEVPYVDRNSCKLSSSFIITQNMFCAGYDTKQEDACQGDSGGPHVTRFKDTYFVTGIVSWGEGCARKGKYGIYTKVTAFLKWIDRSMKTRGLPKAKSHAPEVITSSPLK

Regarding Factor X, the “proteolytic activity toward Factor X (Factor Xa generation, Spectrozyme FXa)” value is “The increasing concentration of Fn-TF led to increased proteolytic activity similar to the curve obtained with TF1-218”.
